# Measurements taken from patent US20130115678.
# What was measured:
# Experiment in all cases: cleavage_in_vitro
# [1] = test system: T1, SspI (Sphaerotilus species); details: NEB4, 37 C, Mg2+; FI NEB1-3: 64, 16, 32
# T1 sequence: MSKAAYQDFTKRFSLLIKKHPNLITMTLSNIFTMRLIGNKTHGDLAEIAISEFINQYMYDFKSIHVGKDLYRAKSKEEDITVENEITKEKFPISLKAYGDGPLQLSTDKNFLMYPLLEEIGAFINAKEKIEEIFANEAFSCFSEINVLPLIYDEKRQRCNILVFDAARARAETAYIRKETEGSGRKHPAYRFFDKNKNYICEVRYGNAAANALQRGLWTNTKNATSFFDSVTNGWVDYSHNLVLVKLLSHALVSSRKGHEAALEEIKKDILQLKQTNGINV
# [2] = test system: T2, BsmBI-HF N185Y/R232A (Bacillus stearothermophilus); details: NEB4, 55 C, Mg2+; listed as BsmBI; FI NEB1-3: 2, >=500, >=64
# T2 sequence: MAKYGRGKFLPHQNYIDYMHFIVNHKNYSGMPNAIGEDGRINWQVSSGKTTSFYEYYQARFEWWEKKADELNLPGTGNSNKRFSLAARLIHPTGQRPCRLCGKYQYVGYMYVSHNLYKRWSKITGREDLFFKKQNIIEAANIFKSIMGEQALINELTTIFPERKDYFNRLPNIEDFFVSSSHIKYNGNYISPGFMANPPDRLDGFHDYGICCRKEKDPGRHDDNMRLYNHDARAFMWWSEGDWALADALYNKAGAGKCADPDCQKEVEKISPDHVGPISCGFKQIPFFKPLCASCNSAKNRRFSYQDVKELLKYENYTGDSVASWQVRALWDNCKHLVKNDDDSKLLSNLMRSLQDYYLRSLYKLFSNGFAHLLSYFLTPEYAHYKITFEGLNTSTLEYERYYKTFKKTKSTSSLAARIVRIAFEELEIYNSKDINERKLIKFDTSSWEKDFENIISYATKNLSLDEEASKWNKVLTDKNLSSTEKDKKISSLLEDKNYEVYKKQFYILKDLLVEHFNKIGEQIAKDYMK
# [3] = test system: BstXI-HF N65A (Bacillus stearothermophilus); details: NEB4, 55 C, Mg2+; FI NEB1-3: >=120, >=250, >=16
# [4] = molecular target: T3, ScaI-HF H193A/S201F (Streptomyces caespitosus) (UniProt O52691); details: NEB4, 37 C, Mg2+; FI NEB1-3: 4000, 1000, 2000
# T3 sequence: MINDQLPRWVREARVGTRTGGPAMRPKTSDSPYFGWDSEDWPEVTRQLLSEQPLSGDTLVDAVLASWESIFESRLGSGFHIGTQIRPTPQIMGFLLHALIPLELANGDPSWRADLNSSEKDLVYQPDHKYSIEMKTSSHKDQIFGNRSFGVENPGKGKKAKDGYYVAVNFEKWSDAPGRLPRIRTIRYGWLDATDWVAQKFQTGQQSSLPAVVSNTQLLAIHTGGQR
# [5] = molecular target: T4, HpaI (Haemophilus parainfluenzae) (UniProt P29537); details: NEB4, 37 C, Mg2+; FI NEB1-3: 32, 1, 2
# T4 sequence: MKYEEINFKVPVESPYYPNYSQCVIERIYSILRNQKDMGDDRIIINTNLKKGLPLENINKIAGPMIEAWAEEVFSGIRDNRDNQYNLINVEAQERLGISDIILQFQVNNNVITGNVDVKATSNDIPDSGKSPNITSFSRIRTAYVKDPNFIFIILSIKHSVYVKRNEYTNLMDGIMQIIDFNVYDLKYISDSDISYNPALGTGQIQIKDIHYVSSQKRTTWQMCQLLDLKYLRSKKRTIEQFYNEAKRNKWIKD
# [6] = test system: T5, SphI (Streptomyces phaeochromogenes); details: NEB4, 37 C, Mg2+; FI NEB1-3: 64, 32, 64
# T5 sequence: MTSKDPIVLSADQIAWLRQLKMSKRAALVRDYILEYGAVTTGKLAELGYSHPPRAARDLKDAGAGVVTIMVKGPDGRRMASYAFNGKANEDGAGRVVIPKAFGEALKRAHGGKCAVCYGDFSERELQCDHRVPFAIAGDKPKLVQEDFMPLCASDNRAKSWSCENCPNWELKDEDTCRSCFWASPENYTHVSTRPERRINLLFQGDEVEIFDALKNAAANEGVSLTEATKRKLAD
# [7] = test system: T6, NcoI-HF A2T/R31A (Nocardia corallina); details: NEB4, 37 C, Mg2+; Table 3 prints >=64000; FI NEB1-3: >=4000, >=4000, >=1000
# T6 sequence: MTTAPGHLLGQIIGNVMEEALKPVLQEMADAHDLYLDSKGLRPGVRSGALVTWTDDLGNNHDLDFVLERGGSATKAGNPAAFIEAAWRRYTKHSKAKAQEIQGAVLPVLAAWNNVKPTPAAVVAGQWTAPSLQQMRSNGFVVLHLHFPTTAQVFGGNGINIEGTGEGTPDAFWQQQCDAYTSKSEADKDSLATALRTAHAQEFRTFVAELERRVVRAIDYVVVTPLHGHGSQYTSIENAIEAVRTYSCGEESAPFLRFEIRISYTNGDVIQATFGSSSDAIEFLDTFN
# [8] = test system: T7, BspQI (Bacillus sphaericus); details: NEB4, 50 C, Mg2+; FI NEB1-3: 2, 16, 32
# T7 sequence: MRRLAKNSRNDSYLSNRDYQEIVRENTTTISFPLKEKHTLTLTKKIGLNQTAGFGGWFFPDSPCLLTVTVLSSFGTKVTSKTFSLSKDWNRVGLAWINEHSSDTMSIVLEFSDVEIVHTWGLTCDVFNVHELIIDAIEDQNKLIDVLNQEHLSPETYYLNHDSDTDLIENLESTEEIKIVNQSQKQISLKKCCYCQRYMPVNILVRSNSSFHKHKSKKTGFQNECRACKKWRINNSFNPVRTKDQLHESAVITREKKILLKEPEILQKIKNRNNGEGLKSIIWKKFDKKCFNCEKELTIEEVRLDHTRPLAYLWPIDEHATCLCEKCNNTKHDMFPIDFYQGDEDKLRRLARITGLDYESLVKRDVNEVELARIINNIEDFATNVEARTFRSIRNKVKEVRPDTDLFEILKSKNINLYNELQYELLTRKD
substance,measurement,setting,value
lambda phage DNA,activity (fidelity index),[1],16
same,activity (fidelity index),[2],> 500
same,activity (fidelity index),[3],> 250
same,activity (fidelity index),[4],1000
same,activity (fidelity index),[5],16
same,activity (fidelity index),[6],16
same,activity (fidelity index),[7],> 16000
same,activity (fidelity index),[8],4
